Results published in publication PMC10496494 (2023).

Biological target: NPM1 (human wildtype nucleophosmin, residues 1 to 290), purified recombinant (human, UniProt P06748 1-290)
Assay: SPR; NPM1 immobilised, DDX24^WT as analyte

Chain of NPM1 (human wildtype nucleophosmin, residues 1 to 290), purified recombinant (P06748 1-290): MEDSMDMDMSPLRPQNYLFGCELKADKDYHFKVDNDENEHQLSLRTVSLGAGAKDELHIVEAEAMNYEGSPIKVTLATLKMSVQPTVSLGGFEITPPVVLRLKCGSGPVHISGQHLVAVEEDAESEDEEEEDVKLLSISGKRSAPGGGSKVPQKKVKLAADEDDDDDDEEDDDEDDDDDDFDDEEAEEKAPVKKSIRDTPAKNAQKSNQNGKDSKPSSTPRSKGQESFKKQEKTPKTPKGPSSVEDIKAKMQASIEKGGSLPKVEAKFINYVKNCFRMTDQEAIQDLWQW

Kd: 2.4 nM
B1: DDX24^WT (human wildtype DDX24, residues 28 to 859), purified recombinant (domain or fragment)
chain: KWKEVKIDPNMFADGQMDDLVCFEELTDYQLVSPAKNPSSLFSKEAPKRKAQAVSEEEEEEEGKSSSPKKKIKLKKSKNVATEGTSTQKEFEVKDPELEAQGDDMVCDDPEAGEMTSENLVQTAPKKKKNKGKKGLEPSQSTAAKVPKKAKTWIPEVHDQKADVSAWKDLFVPRPVLRALSFLGFSAPTPIQALTLAPAIRDKLDILGAAETGSGKTLAFAIPMIHAVLQWQKRNAAPPPSNTEAPPGETRTEAGAETRSPGKAEAESDALPDDTVIESEALPSDIAAEARAKTGGTVSDQALLFGDDDAGEGPSSLIREKPVPKQNENEEENLDKEQTGNLKQELDDKSATCKAYPKRPLLGLVLTPTRELAVQVKQHIDAVARFTGIKTAILVGGMSTQKQQRMLNRRPEIVVATPGRLWELIKEKHYHLRNLRQLRCLVVDEADRMVEKGHFAELSQLLEMLNDSQYNPKRQTLVFSATLTLVHQAPARILHKKHTKKMDKTAKLDLLMQKIGMRGKPKVIDLTRNEATVETLTETKIHCETDEKDFYLYYFLMQYPGRSLVFANSISCIKRLSGLLKVLDIMPLTLHACMHQKQRLRNLEQFARLEDCVLLATDVAARGLDIPKVQHVIHYQVPRTSEIYVHRSGRTARATNEGLSLMLIGPEDVINFKKIYKTLKKDEDIPLFPVQTKYMDVVKERIRLARQIEKSEYRNFQACLHNSWIEQAAAALEIELEEDMYKGGKADQQEERRRQKQMKVLKKELRHLLSQPLFTESQKTKYPTQSGKPPLLVSAPSKSESALSCLSKQKKKKTKKPKEPQPEQPQPSTSAN
